According to the supplement of paper PMC10724198:
± gives the standard deviation of the averaged measurements.

System: Saccharomyces cerevisiae
Assay: protein stability index of tFT-peptide fusion (C-terminal peptide) (PSI (0-1 scale)); higher = more stable (slower turnover)
Details: genetic background: wild type; temperature: 30 C
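Note: PSI is a weighted mean of sequencing reads over stability bins, variants kept only with over 10 reads, mCherry proximal and sfGFP distal, peptide attached via GGGS linker.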

| Sequence | protein stability index |
| --- | --- |
| PPPPPPLFPSPP | 0.772 ± 0.13 |
| PLPPLLLPPPLP | 0.703 ± 0.046 |
| PPRPPLHPLRLL | 0.6651 ± 0.0013 |
| SSLPSTGPRPLH | 0.582 ± 0.038 |
| CGHVRSLAMAHN | 0.68 ± 0.019 |
| SLRSGFVSHFSP | 0.689 ± 0.11 |
| FCWCARPLSWYN | 0.615 ± 0.027 |
| RRFAKVALLSLR | 0.644 ± 0.12 |
| PLFRTPPPRPSP | 0.673 ± 0.14 |
| LTDCIHERKGTE | 0.743 ± 0.017 |
| DACPLAEGGGAA | 0.717 ± 0.035 |
| LLSPSPPLLPPL | 0.763 ± 0.036 |
| LLLLFLCSPSSL | 0.496 ± 0.041 |
| NCMFKSNKQGGA | 0.6749 ± 0.0021 |
| AYSNVFLDPTPV | 0.69 ± 0.0097 |
| PWTRMHRETRYL | 0.683 ± 0.02 |
| VAGGLRGLGLRA | 0.67 ± 0.053 |
| PPPAPRTPPLLP | 0.736 ± 0.029 |
| EVDKKYRNRKRK | 0.744 ± 0.019 |
| RYRRQESYVIIK | 0.766 ± 0.13 |
| PRPGSRCPIKGR | 0.692 ± 0.024 |
| ADDTFSERIHSK | 0.7 ± 0.093 |
| PLVPSPSPPPAR | 0.727 ± 0.031 |
| TVIDVIKLMLHL | 0.583 ± 0.044 |
| PGHRVLKILHLR | 0.551 ± 0.055 |

| Sequence | protein stability index |
| --- | --- |
| GGVWAGEATGVQ | 0.666 ± 0.052 |
| FTHVKEVNTGNR | 0.672 ± 0.053 |
| GALARFEGAVRV | 0.702 ± 0.012 |
| CSHSLVLRFCPF | 0.607 ± 0.059 |
| CLCPPPPLPVPR | 0.699 ± 0.092 |
| VTGGGVGHWGWW | 0.761 ± 0.052 |
| HSSALFSSRLRF | 0.7223 ± 0.0036 |
| HMQCVFRSTHHR | 0.585 ± 0.054 |
| VLALLPLFFYFH | 0.5041 ± 0.0041 |
| LDSGSVYMSRDI | 0.652 ± 0.015 |
| PSALPLVPSPLP | 0.706 ± 0.033 |
| VLVLVARPLWRI | 0.646 ± 0.0094 |
| QNPRTDEAVRSP | 0.619 ± 0.011 |
| GHYPCLPFLFPL | 0.707 ± 0.087 |
| EVVRWGCVDLWI | 0.717 ± 0.051 |
| SPPPAPPPISPS | 0.708 ± 0.15 |
| PCYCSAPRRSWA | 0.749 ± 0.04 |
| DPPPHPPPASPT | 0.7 ± 0.1 |
| FVGVRTLSRIKI | 0.696 ± 0.053 |
| LSALGGVLWWWC | 0.616 ± 0.026 |
| IDDITMYRKKYR | 0.66 ± 0.047 |
| FGRGLCPHRLWI | 0.74 ± 0.039 |
| PRPGQPFSRFRF | 0.6724 ± 0.0054 |
| SLPPSPPPPSLP | 0.715 ± 0.028 |
| CEERGLLPTQYS | 0.6686 ± 0.006 |

| Sequence | protein stability index |
| --- | --- |
| YSILYRMQNSKI | 0.696 ± 0.021 |
| EAGGAQGPTGEL | 0.634 ± 0.02 |
| SFPHSFLFPLFP | 0.751 ± 0.09 |
| FRYSSLPRPLVF | 0.5893 ± 0.0029 |
| RVGSGCFVGIFC | 0.577 ± 0.024 |
| RGGGFIGSFFMG | 0.751 ± 0.15 |
| EHFGFYFIFNLY | 0.58 ± 0.034 |
| AGLPGSSFWWVF | 0.682 ± 0.058 |
| GRQILMLGYMVA | 0.548 ± 0.012 |
| FAPPASPPARPP | 0.672 ± 0.016 |
| NPAVASPPPSSS | 0.737 ± 0.036 |
| SLSPTPVAPPLN | 0.678 ± 0.009 |
| GPGGVGGTSGGK | 0.69 ± 0.062 |
| GGGGSTIGVYVL | 0.686 ± 0.0047 |
| VACSVVVPGLGG | 0.69 ± 0.017 |
| VFGSYFFIPFFL | 0.498 ± 0.016 |
| SPSSTSPAPFPL | 0.672 ± 0.14 |
| RLSGDRCSHDAG | 0.6768 ± 0.0037 |
| PPAPRPPSPRPP | 0.693 ± 0.033 |
| VSRKEQYPEAQE | 0.625 ± 0.033 |
| EVLAVKLYSGIA | 0.648 ± 0.044 |
| VSLCYGGGFWGG | 0.722 ± 0.014 |
| PASPPSPLLLSL | 0.74 ± 0.066 |
| TPMDVEVPIAPI | 0.753 ± 0.063 |
| GQDNSEVLGSVQ | 0.668 ± 0.12 |

| Sequence | protein stability index |
| --- | --- |
| GSTLWGRAWGAR | 0.724 ± 0.02 |
| LFCVAPLGSVSY | 0.652 ± 0.033 |
| SPWFPLPSFPLA | 0.73 ± 0.029 |
| TPTPLTRRPTQV | 0.673 ± 0.041 |
| VAGWDRETGAWG | 0.58 ± 0.083 |
| TTTQIIRISKSR | 0.673 ± 0.044 |
| RHTARQSTTWRG | 0.695 ± 0.071 |
| ALWARSGRVILI | 0.674 ± 0.05 |
| FFTVRLRGGRDC | 0.649 ± 0.024 |
| GLGALPVRVWEG | 0.731 ± 0.034 |
| PFFSSRLFTLSL | 0.731 ± 0.015 |
| CRRRGPWDRRSR | 0.624 ± 0.014 |
| EPNRIAKYYKKY | 0.686 ± 0.16 |
| VPSPPCPPHLPI | 0.655 ± 0.012 |
| PGQSSPLPPDVS | 0.653 ± 0.078 |
| LCVVRGLLCSPL | 0.628 ± 0.0092 |
| MAIRSPACRLRF | 0.674 ± 0.049 |
| EGTKEKGEKRRR | 0.666 ± 0.065 |
| GSSPIDGLEVYG | 0.654 ± 0.041 |
| KKVKMIKEIRRG | 0.745 ± 0.044 |
| QSAFLFGFMSFW | 0.62 ± 0.025 |
| PSPALPANQSFY | 0.665 ± 0.019 |
| DVGRDVCEFRDR | 0.677 ± 0.045 |
| RSSRRLAGPVSS | 0.639 ± 0.06 |
| HPPSPPPPAPSC | 0.738 ± 0.02 |

| Sequence | protein stability index |
| --- | --- |
| PLHPPPPPPPPT | 0.69 ± 0.034 |
| AGRLEGGRRWRV | 0.69 ± 0.031 |
| SLKIPSPLSPVL | 0.699 ± 0.028 |
| FLCRLILFSTPP | 0.602 ± 0.021 |
| LPPPPHRSRPPP | 0.66 ± 0.06 |
| EGLRLWGRCCWG | 0.74 ± 0.048 |
| VEPTSDNGVVRR | 0.662 ± 0.025 |
| WGWGVLRRRVGA | 0.76 ± 0.082 |
| GGRPVTGIAGML | 0.666 ± 0.025 |
| VLMVIPRAQVLL | 0.697 ± 0.085 |
| GVLVERLCGRGF | 0.702 ± 0.049 |
| CNGRREAGHVDM | 0.624 ± 0.13 |
| GCCGGGGVEGLE | 0.695 ± 0.022 |
| RLPPPSPSLPPL | 0.722 ± 0.063 |
| RKLNEKTRYKRR | 0.7788 ± 0.003 |
| RPLPPLIPSSFS | 0.698 ± 0.038 |
| KKNQKKNEKHIK | 0.689 ± 0.041 |
| VVARGGGGGSGA | 0.583 ± 0.016 |
| CFLSAVFISSSL | 0.601 ± 0.045 |
| PPPPPTRLPQNS | 0.694 ± 0.062 |
| CGVRQVGEIAVA | 0.526 ± 0.022 |
| ERGALNRKDTRG | 0.662 ± 0.023 |
| LPPPLPPPGPPF | 0.715 ± 0.013 |
| WLRCGCVKWAGG | 0.657 ± 0.013 |
| LSFRPPLHPFAL | 0.695 ± 0.01 |

| Sequence | protein stability index |
| --- | --- |
| ALGVRVSVLGVL | 0.642 ± 0.0075 |
| PCMCKRNKQYRG | 0.649 ± 0.016 |
| SSPARPTRTSPA | 0.652 ± 0.061 |
| PPLLPLSQPLPH | 0.683 ± 0.038 |
| LRGVGGAGVFFG | 0.675 ± 0.025 |
| YMCPSFCLPLFP | 0.731 ± 0.1 |
| VHHTPFFSAPHV | 0.647 ± 0.09 |
| KKSRLRNNPADC | 0.7 ± 0.031 |
| REKSLKINKKKN | 0.676 ± 0.0068 |
| RVWERGGGGDGC | 0.645 ± 0.049 |
| AGSHPSRLGIFS | 0.733 ± 0.033 |
| KHRSIRPYLKND | 0.72 ± 0.037 |
| PYRPPPPLALSL | 0.693 ± 0.015 |
| HPSLSDLIVLCR | 0.51 ± 0.01 |
| MENAMHQLNRNT | 0.679 ± 0.022 |
| GGPPFAPPPPPH | 0.71 ± 0.026 |
| VLSLLVLLLSLP | 0.614 ± 0.017 |
| FTLCPARALSLC | 0.552 ± 0.024 |
| GGGGEGPGKSPR | 0.669 ± 0.14 |
| RMKGTNKEGKKK | 0.693 ± 0.054 |
| CFRPFSARVVVL | 0.565 ± 0.016 |
